In US20050142135A1, “Agents and methods for modulating interactions between gonadotropin hormones and receptors” (University of Kentucky Research Foundation, priority 2003, published 2005):
Substitutions are numbered along the chain they refer to.

What was measured:
human FSHR [1] = experiment: FSH dependent intracellular cAMP assay, wild type and mutant FSHR in HEK 293 cells; type: cell-based; details: for FSH dependent cAMP induction / EC50 compared with the wild type receptor, in words: HEK 293 cells
Protocol: (§1) Mutant FSHR cDNAs were prepared in the pSELECT vector using the Altered Sites Mutagenesis system (Promega), sequenced on a Beckman CEQ 2000XL capillary sequencer, subcloned into pcDNA3 (Invitrogen), and sequenced again to verify mutation sequences. […] Wild type and mutant receptor constructs were transfected into HEK 293 cells by the calcium phosphate method as previously described. Stable cell lines were established in minimum essential medium containing 10% horse serum and 500 μg/ml of G418. These cells were used for hormone binding, cAMP production. All assays were carried out in duplicate and repeated 4-5 times, and means±S.D. were calculated.
(§2) The Kd values were determined by Scatchard plots. For intracellular cAMP assay, cells were washed twice with Dulbecco's modified Eagle's medium and incubated in the medium containing 0.1 μg/ml isobutylmethylxanthine for 15 mm. Increasing concentrations of FSH were then added and incubation was continued for 45 mm at 37° C. After removing the medium, the cells were rinsed once with fresh medium without isobutylmethylxanthine, lysed in 70% ethanol, freeze-thawed in liquid nitrogen, and scraped.
(§3) Human FSH (the National Hormone and Pituitary Program) was radioiodinated as previously described for radioiodination of hCG. […] The Kd values were determined by Scatchard plots. Truncated exodomain was solubilized in Nonidet P-40 and assayed for hormone binding as described previously. For intracellular cAMP assay, cells were washed twice with Dulbecco's modified Eagle's media and incubated in the media containing isobutylmethylxanthine (0.1 mg/ml) for 15 minutes. Increasing concentrations of FSH were then added and the incubation was continued for 45 minutes at 37° C. After removing the media, the cells were rinsed once with fresh media without isobutylmethylxanthine, lysed in 70% ethanol, freeze-thawed in liquid nitrogen, and scraped. […] Exoloop 3 of FSHR was modeled based on the crystal structure of rhodopsin as a template.

human FSHR [2] = experiment: ^125I-FSH binding to wild type and mutant FSH receptors on intact stably transfected HEK 293 cells; details: for FSH binding / Kd compared with the wild type receptor, in words: intact HEK 293 cells
Protocol: as §1, §2
Each mutant human FSHR cDNA was prepared in a pSELECT vector using the non-PCR based Altered Sites Mutagenesis System (Promega), sequenced on a Beckman CEQ 2000XL capillary sequencer and subcloned into pcDNA3 (Invitrogen) as described. After subcloning pcDNA3 the mutant cDNAs were sequenced again. Plasmids were transfected into human embryonic kidney (HEK) 293 cells by the calcium phosphate method. Stable cell lines were established in minimum essential medium containing 10% horse serum and 500 μg/ml of G-418, and then used for hormone binding and cAMP assay. All assays were carried out in duplicate and repeated 4-6 times. Means and standard variations were calculated.
as §3

FSHR = experiment: ^125I-FSH binding to solubilized FSHR (NP-40); parameters: species or system human; details: solubilized mutant receptors
Protocol: Transfected cells were washed twice with ice cold 150 mM NaCl, 20 mM HEPES, pH 7.4 (buffer A). Cells were scraped on ice, collected in buffer A containing protease inhibitors (1 mM phenylmethylsulfonyl fluoride, 5 mM N-ethylmaleimide, and 10 mM EDTA), and pelleted by centrifugation at 1300×g for 10 minutes. Cells were resuspended in 0.6 ml of buffer A containing 1% NP-40, 20% glycerol, and the above protease inhibitors (buffer B), incubated on ice for 15 mm, and diluted with 5.4 ml of buffer A containing 20% glycerol plus the protease inhibitors (buffer C). The mixture was centrifuged at 100,000×g for 60 minutes. […] After incubation for 12 hours at 4° C., the solution was thoroughly mixed with 250 μl of buffer A containing bovine γ-globulin (5 μg/ml) and 750 μl of buffer A containing 20% polyethylene glycol 8000. After incubation for 10 minutes at 4° C., samples were pelleted at 1300×g for 30 mm and supernatants removed. Pellets were resuspended in 1.5 ml of buffer A containing 20% polyethylene glycol 8000, centrifuged, and counted for radioactivity.

B1: N^10A: human FSHR with Ala substituted for N10 (protein)
chain: CHHRICHCSARVFLCQESKVTEIPSDLPRNAIELRFVLTKLRVIQKGAFSGFGDLEKIEISQNDVLEVIEADVFSNLPKLHEIRIEKANNLLYINPEAFQNLPNLQYLLISNTGIKHLPDVHKIHSLQKVLLDIQDNINIHTIERNSFVGLSFESVILWLNKNGIQEIHNCAFNGTQLDELNLSDNNNLEELPNDVFHGASGPVILDISRTRIHSLPSYGLENLKKLRARSTYNLKKLPTLEKLVALMEASLTYPSHCCAFANWRRQISELHPICNKSILRQEVDYMTQARGQRSSLAEDNESSYSRGFDMTYTEFDYDLCNEVVDVTCSPKPDAFNPCEDIMGYNILRVLIWFISILAITGNIIVLVILTTSQYKLTVPRFLMCNLAFADLCIGIYLLLIASVDIHTKSQYHNYAIDWQTGAGCDAAGFFTVFASELSVYTLTAITLERWHTITHAMQLDCKVQLRHAASVMVMGWIFAFAAALFPIFGISSYMKVSICLPMDIDSPLSQLYVMSLLVLNVLAFVVICGCYIHIYLTVRNPNIVSSSSDTRIAKRMAMLIFTDFLCMAPISFFAISASLKVPLITVSKAKILLVLFHPINSCANPFLYAIFTKNFRRDFFILLSKCGCYEMQAQIYRTETSSTVHNTHPRNGHCSSAPRVTSGSTYILVPLSHLAQN
- FSH dependent cAMP induction / EC50 compared with the wild type receptor, in words (human FSHR [1]): lower than the wild type value
- FSH binding / Kd compared with the wild type receptor, in words (human FSHR [2]): improved hormone binding
- FSH binding / Kd compared with the wild type receptor, in words (human FSHR [2]; listed as FSHR^N10A): lower than the wild type value

B2: L^14A: human FSHR with Ala substituted for L14 (protein)
chain: B1 chain with A10N, L14A
- FSH dependent cAMP induction / EC50 compared with the wild type receptor, in words (human FSHR [1]): lower than the wild type value
- FSH binding / Kd compared with the wild type receptor, in words (human FSHR [2]): improved hormone binding
- FSH binding / Kd compared with the wild type receptor, in words (human FSHR [2]; listed as FSHR^L14A): lower than the wild type value

B3: S^18A: human FSHR with Ala substituted for S18 (protein)
chain: B1 chain with A10N, S18A
- reduction (improvement) of the EC50 value of cAMP induction compared with wild type (human FSHR [1]; FSH dependent cAMP): 3 fold
- FSH dependent cAMP induction / EC50 compared with the wild type receptor, in words (human FSHR [1]): considerably lower EC50 value
- FSH binding / Kd compared with the wild type receptor, in words (human FSHR [2]): higher Kd value

B4: S^9A: human FSHR with Ala substituted for S9 (protein)
chain: B1 chain with S9A, A10N
- FSH dependent cAMP induction / EC50 compared with the wild type receptor, in words (human FSHR [1]): lower than the wild type value

B5: R^11A: human FSHR with Ala substituted for R11 (protein)
chain: B1 chain with A10N, R11A
- FSH binding / Kd compared with the wild type receptor, in words (human FSHR [2]): improved hormone binding
- FSH binding / Kd compared with the wild type receptor, in words (human FSHR [2]; listed as FSHR^R11A): lower than the wild type value

B6: D^26A: human FSHR with Ala substituted for D26 (protein)
chain: B1 chain with A10N, D26A
- FSH binding / Kd compared with the wild type receptor, in words (human FSHR [2]): completely abrogated hormone binding
- FSH binding to receptors solubilized in NP-40 (FSHR): did not bind

B7: L^583 A: human FSHR exoloop 3 mutant, Ala for L583 (protein)
chain: B1 chain with A10N, L584A
- FSH dependent cAMP induction / EC50 compared with the wild type receptor, in words (human FSHR [1]): did not produce cAMP

B8: F^13A: human FSHR with Ala substituted for F13 (protein)
chain: B1 chain with A10N, F13A
- FSH dependent cAMP induction / EC50 compared with the wild type receptor, in words (human FSHR [1]): lower than the wild type value

B9: L^583 F: human FSHR mutant, Phe for L583 (protein)
chain: B1 chain with A10N, L584F
- FSH dependent cAMP induction / EC50 compared with the wild type receptor, in words (human FSHR [1]): induced significant amounts of cAMP with reasonable EC50 values

B10: L^583 Q: human FSHR mutant, Gln for L583 (protein)
chain: B1 chain with A10N, L584Q
- FSH dependent cAMP induction / EC50 compared with the wild type receptor, in words (human FSHR [1]): induced a marginal level of cAMP

B11: I^23A: human FSHR with Ala substituted for I23 (protein)
chain: B1 chain with A10N, I23A
- EC50 value of cAMP induction, fold higher than wild type (human FSHR [1]; FSH dependent cAMP): 23 fold
- maximal cAMP level, fold lower than wild type (human FSHR [1]; FSH dependent cAMP): 2.6 fold

B12: V^12A: human FSHR with Ala substituted for V12 (protein)
chain: B1 chain with A10N, V12A
- FSH dependent cAMP induction / EC50 compared with the wild type receptor, in words (human FSHR [1]): lower than the wild type value

B13: P^24A: human FSHR with Ala substituted for P24 (protein)
chain: B1 chain with A10N, P24A
- FSH binding / Kd compared with the wild type receptor, in words (human FSHR [2]): completely abrogated hormone binding
- FSH binding to receptors solubilized in NP-40 (FSHR): did not bind

B14: del: human FSHR deletion mutant, L583 deleted (protein, UniProt P23945 18-695, looked up, variant L583*)
Follicle-stimulating hormone …: CHHRICHCSNRVFLCQESKVTEIPSDLPRNAIELRFVLTKLRVIQKGAFSGFGDLEKIEISQNDVLEVIEADVFSNLPKLHEIRIEKANNLLYINPEAFQNLPNLQYLLISNTGIKHLPDVHKIHSLQKVLLDIQDNINIHTIERNSFVGLSFESVILWLNKNGIQEIHNCAFNGTQLDELNLSDNNNLEELPNDVFHGASGPVILDISRTRIHSLPSYGLENLKKLRARSTYNLKKLPTLEKLVALMEASLTYPSHCCAFANWRRQISELHPICNKSILRQEVDYMTQARGQRSSLAEDNESSYSRGFDMTYTEFDYDLCNEVVDVTCSPKPDAFNPCEDIMGYNILRVLIWFISILAITGNIIVLVILTTSQYKLTVPRFLMCNLAFADLCIGIYLLLIASVDIHTKSQYHNYAIDWQTGAGCDAAGFFTVFASELSVYTLTAITLERWHTITHAMQLDCKVQLRHAASVMVMGWIFAFAAALFPIFGISSYMKVSICLPMDIDSPLSQLYVMSLLVLNVLAFVVICGCYIHIYLTVRNPNIVSSSSDTRIAKRMAMLIFTDFCMAPISFFAISASLKVPLITVSKAKILLVLFHPINSCANPFLYAIFTKNFRRDFFILLSKCGCYEMQAQIYRTETSSTVHNTHPRNGHCSSAPRVTSGSTYILVPLSHLAQN
- improvement of hormone binding affinity (decrease of Kd) compared with wild type (human FSHR [2]; FSH binding, mutant versus wild type FSHR): more than 4 fold
